Molecular target: Galectin-3-binding protein in conditioned media of HEK293T cells expressing rSulf-2 (human (endogenous in HEK293T)) (UniProt Q08380)
Assay: affinity purification with mass spectrometry

Sequence of UniProt Q08380 (Q08380 19-585): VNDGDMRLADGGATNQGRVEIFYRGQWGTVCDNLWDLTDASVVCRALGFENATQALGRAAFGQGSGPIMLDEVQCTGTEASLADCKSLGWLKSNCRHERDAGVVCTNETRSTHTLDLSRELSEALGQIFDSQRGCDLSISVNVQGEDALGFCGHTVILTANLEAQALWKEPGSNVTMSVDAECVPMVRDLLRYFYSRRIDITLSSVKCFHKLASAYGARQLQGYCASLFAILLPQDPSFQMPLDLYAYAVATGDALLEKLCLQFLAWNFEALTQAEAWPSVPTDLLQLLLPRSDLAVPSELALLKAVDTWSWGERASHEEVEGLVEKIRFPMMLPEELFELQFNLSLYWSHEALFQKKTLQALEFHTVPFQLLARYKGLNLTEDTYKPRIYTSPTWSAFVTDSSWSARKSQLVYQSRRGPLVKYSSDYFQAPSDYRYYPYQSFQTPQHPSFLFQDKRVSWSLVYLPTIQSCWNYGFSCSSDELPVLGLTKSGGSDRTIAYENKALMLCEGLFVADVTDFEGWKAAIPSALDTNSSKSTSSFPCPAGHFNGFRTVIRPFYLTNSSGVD

Substance: rSulf-2 (HEK293T lentiviral) treated with chondroitinase ABC (enzyme)
- fold change of the Sulf-2/LG3BP peak-area ratio against the untreated control: 3 fold

Reference: publication PMC10769223
